Assays:
[1] = molecular target: KpBest, bacterial homolog of human bestrophin 1 (not stated (bacterial))
[2] = molecular target: voltage-gated Ca^2+ channel complex; assay: FRET or BRET

| stoichiometry N [2] | Substance | stoichiometry N [1] |
| --- | --- | --- |
| – | KpBest, bacterial homolog of human bestrophin 1 (natural protein) | 5 |
| 1 | calmodulin (from UniProt P0DP23 1-149) (natural protein) | – |

Reference: article PMC4555475
